Data as given in PMC2756588.

T1: Abp1, P15891
T1 sequence (P15891 535-592, looked up): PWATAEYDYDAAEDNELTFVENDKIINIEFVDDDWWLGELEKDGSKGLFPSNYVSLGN

T2: Bbc1, P47068
T2 sequence (P47068 1-78, looked up): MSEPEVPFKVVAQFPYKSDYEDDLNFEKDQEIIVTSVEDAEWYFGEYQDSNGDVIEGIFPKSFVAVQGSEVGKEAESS

T3: Boi1, P38041
T3 sequence (P38041 1-86, looked up): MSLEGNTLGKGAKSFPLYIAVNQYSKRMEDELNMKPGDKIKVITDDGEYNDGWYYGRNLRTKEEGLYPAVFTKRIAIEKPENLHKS

T4: Boi2, P39969
T4 sequence (P39969 32-116, looked up): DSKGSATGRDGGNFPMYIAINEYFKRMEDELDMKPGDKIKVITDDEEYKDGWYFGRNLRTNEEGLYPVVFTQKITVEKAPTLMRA

T5: Bud14, P27637
T5 sequence (P27637 247-328, looked up): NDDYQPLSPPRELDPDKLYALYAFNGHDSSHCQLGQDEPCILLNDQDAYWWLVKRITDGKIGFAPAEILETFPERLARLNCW

T6: Bzz1-1, P38822
T6 sequence (P38822 478-572, looked up): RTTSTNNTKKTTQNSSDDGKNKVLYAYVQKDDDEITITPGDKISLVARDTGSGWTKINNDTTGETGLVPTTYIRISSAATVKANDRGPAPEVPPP

T7: Bzz1-2, P38822
T7 sequence (P38822 568-633, looked up): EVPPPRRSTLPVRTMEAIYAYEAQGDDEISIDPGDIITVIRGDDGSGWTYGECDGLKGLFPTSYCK

T8: Cdc25, P04821
T8 sequence (P04821 50-136, looked up): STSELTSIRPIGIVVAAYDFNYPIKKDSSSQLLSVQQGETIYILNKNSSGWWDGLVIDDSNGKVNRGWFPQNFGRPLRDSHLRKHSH

T9: Cyk3, Q07533
T9 sequence (Q07533 1-83, looked up): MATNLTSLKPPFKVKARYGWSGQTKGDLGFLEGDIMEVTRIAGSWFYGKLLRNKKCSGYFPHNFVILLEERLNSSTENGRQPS

T10: Fus1, P11710
T10 sequence (P11710 432-512, looked up): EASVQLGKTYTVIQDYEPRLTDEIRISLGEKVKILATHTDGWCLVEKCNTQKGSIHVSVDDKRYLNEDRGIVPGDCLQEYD

T11: Hof1, Q05080
T11 sequence (Q05080 590-669, looked up): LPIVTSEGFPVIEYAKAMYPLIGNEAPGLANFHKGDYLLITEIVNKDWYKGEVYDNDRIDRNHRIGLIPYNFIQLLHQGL

T12: Hse1, P38753
T12 sequence (P38753 208-285, looked up): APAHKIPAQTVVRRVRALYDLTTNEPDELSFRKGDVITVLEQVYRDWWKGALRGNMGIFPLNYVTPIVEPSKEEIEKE

T13: Lsb1, P53281
T13 sequence (P53281 45-122, looked up): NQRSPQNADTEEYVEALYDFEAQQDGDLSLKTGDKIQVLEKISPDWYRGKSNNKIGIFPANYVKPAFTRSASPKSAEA

T14: Lsb3, P43603
T14 sequence (P43603 385-451, looked up): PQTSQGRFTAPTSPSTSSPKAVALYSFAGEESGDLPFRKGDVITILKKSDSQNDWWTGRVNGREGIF

T15: Lsb4, P32793
T15 sequence (P32793 402-468, looked up): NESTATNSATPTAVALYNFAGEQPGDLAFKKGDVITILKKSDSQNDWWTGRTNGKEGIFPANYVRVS

T16: Myo5, Q04439
T16 sequence (Q04439 1072-1160, looked up): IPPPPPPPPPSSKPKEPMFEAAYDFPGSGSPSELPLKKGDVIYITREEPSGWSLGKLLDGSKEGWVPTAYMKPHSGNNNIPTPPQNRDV

T17: Nbp2, Q12163
T17 sequence (Q12163 103-180, looked up): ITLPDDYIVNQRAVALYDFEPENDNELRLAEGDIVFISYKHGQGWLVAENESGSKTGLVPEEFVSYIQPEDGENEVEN

T18: Pex13, P80667
T18 sequence (P80667 295-386, looked up): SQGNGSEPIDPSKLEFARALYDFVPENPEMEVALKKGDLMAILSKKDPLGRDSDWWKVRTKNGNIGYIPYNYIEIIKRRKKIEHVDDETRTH

T19: Pin3, Q06449
T19 sequence (Q06449 53-122, looked up): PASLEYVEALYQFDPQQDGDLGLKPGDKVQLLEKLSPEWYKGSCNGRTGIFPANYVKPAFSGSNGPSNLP

T20: Sla1-2, P32790
T20 sequence (P32790 60-140, looked up): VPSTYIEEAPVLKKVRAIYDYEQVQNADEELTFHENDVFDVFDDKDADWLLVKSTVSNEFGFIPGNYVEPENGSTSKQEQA

T21: Sla1-3, P32790
T21 sequence (P32790 344-424, looked up): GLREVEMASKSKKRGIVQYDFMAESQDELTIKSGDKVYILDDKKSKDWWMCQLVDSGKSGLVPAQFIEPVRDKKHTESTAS

B1: unnamed (peptide)
chain: NFKRLLPRDPSEKSS
B2: unnamed (peptide)
chain: YVRRRPRVRLEPLLS
B3: unnamed (peptide)
chain: LRWRHKFFLPAIAAI

target: T1, Abp1, P15891; assay: SPOT array; conditions: median of control spots 935

Binder	SPOT intensity
B1	41
B2	101
B3	0

target: T2, Bbc1, P47068; assay: SPOT array; conditions: median of control spots 796

Binder	SPOT intensity
B1	51
B2	273
B3	18

target: Bem1-1, P29366; assay: SPOT array; conditions: median of control spots 4282
Sequence (P29366 55-141): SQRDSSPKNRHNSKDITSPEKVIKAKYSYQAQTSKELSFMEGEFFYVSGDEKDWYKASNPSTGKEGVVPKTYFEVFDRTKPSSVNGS

Binder	SPOT intensity
B1	0
B2	0
B3	0

target: Bem1-2, P29366; assay: SPOT array; conditions: median of control spots 4347
Sequence (P29366 139-227): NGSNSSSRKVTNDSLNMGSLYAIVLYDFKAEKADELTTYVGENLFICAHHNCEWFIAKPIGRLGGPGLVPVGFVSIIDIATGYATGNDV

Binder	SPOT intensity
B1	11
B2	15
B3	1

target: T3, Boi1, P38041; assay: SPOT array; conditions: median of control spots 1162

Binder	SPOT intensity
B1	4
B2	13
B3	1

target: T4, Boi2, P39969; assay: SPOT array; conditions: median of control spots 1161

Binder	SPOT intensity
B1	2
B2	17
B3	0

target: T5, Bud14, P27637; assay: SPOT array; conditions: median of control spots 956

Binder	SPOT intensity
B1	12
B2	26
B3	10

target: T6, Bzz1-1, P38822; assay: SPOT array; conditions: median of control spots 4446

Binder	SPOT intensity
B1	1
B2	0
B3	1

target: T7, Bzz1-2, P38822; assay: SPOT array; conditions: median of control spots 4538

Binder	SPOT intensity
B1	10
B2	15
B3	0

target: T8, Cdc25, P04821; assay: SPOT array; conditions: median of control spots 969

Binder	SPOT intensity
B1	50
B2	156
B3	26

target: T9, Cyk3, Q07533; assay: SPOT array; conditions: median of control spots 1451

Binder	SPOT intensity
B1	3
B2	4
B3	4

target: T10, Fus1, P11710; assay: SPOT array; conditions: median of control spots 1200

Binder	SPOT intensity
B1	145
B2	19
B3	53

target: GST; assay: SPOT array; conditions: median of control spots 978

Binder	SPOT intensity
B1	0
B2	9
B3	0

target: T11, Hof1, Q05080; assay: SPOT array; conditions: median of control spots 4086

Binder	SPOT intensity
B1	15
B2	20
B3	0

target: T12, Hse1, P38753; assay: SPOT array; conditions: median of control spots 1727

Binder	SPOT intensity
B1	72
B2	54
B3	21

target: T13, Lsb1, P53281; assay: SPOT array; conditions: median of control spots 388

Binder	SPOT intensity
B1	0
B2	13
B3	0

target: T14, Lsb3, P43603; assay: SPOT array; conditions: median of control spots 406

Binder	SPOT intensity
B1	0
B2	0
B3	0

target: T15, Lsb4, P32793; assay: SPOT array; conditions: median of control spots 397

Binder	SPOT intensity
B1	0
B2	3
B3	0

target: Myo3, P36006; assay: SPOT array; conditions: median of control spots 468

Binder	SPOT intensity
B1	6
B2	5
B3	0

target: T16, Myo5, Q04439; assay: SPOT array; conditions: median of control spots 471

Binder	SPOT intensity
B1	0
B2	1
B3	0

target: T17, Nbp2, Q12163; assay: SPOT array; conditions: median of control spots 357

Binder	SPOT intensity
B1	12
B2	16
B3	0

target: T18, Pex13, P80667; assay: SPOT array; conditions: median of control spots 1341

Binder	SPOT intensity
B1	7
B2	2
B3	3

target: T19, Pin3, Q06449; assay: SPOT array; conditions: median of control spots 2171

Binder	SPOT intensity
B1	7
B2	2
B3	4

target: Rvs167, P39743; assay: SPOT array; conditions: median of control spots 2707
Sequence (P39743 419-482): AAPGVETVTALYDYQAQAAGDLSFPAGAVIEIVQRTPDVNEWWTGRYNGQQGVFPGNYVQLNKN

Binder	SPOT intensity
B1	0
B2	0
B3	0

target: Sho1, P40073; assay: SPOT array; conditions: median of control spots 1148
Sequence (P40073 287-367): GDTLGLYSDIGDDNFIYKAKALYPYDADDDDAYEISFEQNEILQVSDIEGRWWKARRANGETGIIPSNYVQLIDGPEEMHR

Binder	SPOT intensity
B1	51
B2	102
B3	9

target: T20, Sla1-2, P32790; assay: SPOT array; conditions: median of control spots 712

Binder	SPOT intensity
B1	0
B2	3
B3	0

target: T21, Sla1-3, P32790; assay: SPOT array; conditions: median of control spots 5475

Binder	SPOT intensity
B1	156
B2	44
B3	24
